Patent CN1618813A (SHANGHAI HUMAN GENOME RES CT, dated 2005)

Biological target: T1, 甲状腺素受体相互作用蛋白15 (thyroid receptor interacting protein 15, TRIP15) (human, UniProt P61201 1-443)
T1 construct: Purified prokaryotic expression product of the TRIP15 gene; also called TRIP15蛋白; 人TRIP15蛋白
Assay: indirect ELISA, phage antibody on purified TRIP15 antigen

T1 sequence (P61201 whole entry): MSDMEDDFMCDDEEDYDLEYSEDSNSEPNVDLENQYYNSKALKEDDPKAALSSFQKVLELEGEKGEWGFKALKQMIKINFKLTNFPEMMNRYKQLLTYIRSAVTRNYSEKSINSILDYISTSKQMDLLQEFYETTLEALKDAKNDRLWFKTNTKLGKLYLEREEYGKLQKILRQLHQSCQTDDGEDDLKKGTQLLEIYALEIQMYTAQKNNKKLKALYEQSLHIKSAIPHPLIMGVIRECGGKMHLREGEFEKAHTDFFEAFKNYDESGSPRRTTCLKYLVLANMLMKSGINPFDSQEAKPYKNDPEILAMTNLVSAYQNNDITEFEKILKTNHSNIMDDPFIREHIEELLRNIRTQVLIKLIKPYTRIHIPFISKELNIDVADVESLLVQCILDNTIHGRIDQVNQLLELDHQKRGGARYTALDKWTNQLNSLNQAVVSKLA

B1: 抗TRIP15噬菌体抗体 (anti-TRIP15 phage-displayed human single-chain antibody, positive clone) (scFv, V domains shown)
VH: EVQLLESGGGLVQPGGSLRLSCAASGFTFSSYAMSWVRQAPGKGLEWVSSISNDGLKTLYADSVKGRFTISRDNSKNTLYLQMNSLRAEDTAVYYCAKNTGSFDYWGQGTLVTV
VL: DIQMTQSPSSLSASVGDRVTITCRASQSISSYLNWYQQKPGKAPKLLIYRASNLQSGVPSRFSGSGSGTDFTLTISSLQPEDFATYYCQQVLRRPATFGQGTKVEIKR
notes: also called 阳性克隆的噬菌体抗体; 针对TRIP15抗原的scFv
B1: binds.
